{"source": "patent US20230348564A1", "about": "“ANTI-CANCER PROTEINS” (UNICHEM LABORATORIES LTD, priority 2020, published 2023)", "molecules": {"B1": {"name": "SEQ ID NO. 2: recombinant lectin; variant of the S. rolfsii lectin amino acid sequence (reported as Rec-2 in WO 2010/095143) (protein)", "chain": "TYKITVRVYQTNPDAFFHPVEKTVWKYANGGTWTITDDQHVLTMGGSGTSGTLRFHADNGESFTATFGVHNYKRWCDIVTNLAADETGMVINQQYYSQKNREEARERQLSNYQVKNAKGRNFQIVYTEAEGNDLHANLIIG", "modifications": "In vitro synthesis"}}, "key": {"Notch-1": {"tested_on": "Notch-1", "test": "biomarker levels in IOMM-Lee by ELISA", "type": "cell-based, Human", "settings": "1 μg/mL-80 μg/mL, 48 h", "from_the_text": "Effect of SEQ ID No 2 on the expression of following 7 biomarkers were estimated in Human Meningioma cell line (IOMM-Lee) using multiplex analysis: TNF-alpha, VEGF, VEGFR2, HGF, HGFR/c-MET, PDGF-BB, and Contactin-1. Levels of another marker, Notch-1 were also estimated by ELISA in the same cell line. These 8 biomarkers play very crucial role in the pathogenesis and progression of Brain Tumor. […] Supernatants were collected and the levels of these 8 markers were investigated."}, "mechanistic biomarkers": {"tested_on": "mechanistic biomarkers", "test": "modulation of mechanistic biomarkers (summary)", "type": "cell-based", "from_the_text": "The effect of modulation of mechanistic biomarkers by recombinant lectin having the amino acid sequence of SEQ ID NO.2 is summarized as below: • increased levels of HGF, which binds to its receptor C-Met, and then acts on MAPK, • activated ATF-2 which is a tumor suppressor and acts via inducing apoptosis, • increased expression of c-kit, which is receptor for SCF, this acts downstream on MAPK, • increased the expression of JNK and inhibits p53, which activates AFT-2 resulting in apoptosis, • stimulated VEGF, VEGF-A and VEGFR2 expression, which activates Ras-Raf pathway, • inhibited expression of EGF, which binds to EGFR and exerts anticancer effect via Ras-Raf pathway or PKC, • stimulated Her-2, which activates Ras-Raf-MEK1-MAPK-ERK activation, • increased ERK and MEK-1 levels, which activated p90RSK and MMPs expression. ERK also acts via stat-3 and NF-KB, • stimulated GMCSF and IL-6 expression, which act via JAK-STAT pathway and activates NF-KB, • activated IL-4R expression, which connects to JAK-STAT pathway. IL-4R also acts via PI3K-Akt arm, • increased IL-8 levels, which acts via PI-3K-Akt-FOX3 arm. Akt also acts via Stat-3-NF-KB arm, where SEQ ID NO. 2 exerted an increase in Stat-3, • increased expression of Leptin, which binds to its receptor Leptin-R and acts on ERK pathway, • increased levels of cytokines (GMCSF, IL-6 and IL-8) may also interact with the immune system in tumor microenvironment to mount anticancer immunoprotective effect, • activated of TNF-α which connects to JNK pathway, • increased levels of endoglin-1 expression, which is a receptor for TGF-β. […] Binding to Tie-2 regulates PI3k pathway, • activation of Kallikrien-3 & Kallikrien-5 that acts as act a tumor suppressor, via induction of apoptosis, • activation of TRAIL & TRAILR2 causes apoptosis primarily in tumor cells, by binding to certain death receptors, • activation of Osteopontin (PON) which binds to receptors αVβ3 and CD44 and acts via Akt pathway, • inhibited Galectin-1 which either acts via Ras-Raf pathway or PI3k-Akt pathway."}, "IOMM-Lee cell line": {"tested_on": "IOMM-Lee cell line", "test": "Mitochondrial membrane depolarization by JC-1 staining", "type": "cell-based, Human", "settings": "1 μg/mL-80 μg/mL", "description": "(§1) The evaluation of pro-apoptotic effect of SEQ ID NO. 2 in brain tumor cell lines U251MG & IOMM Lee was conducted. The cells were treated with SEQ ID NO. 2 at various concentrations around IC50 values. Resultant effect on apoptosis was determined via externalization of Phosphatidyl Serine (PS) on cell membrane by Annexin-V staining, mitochondrial membrane depolarization by JC-1 staining and cell cycle distribution analysis by Propidium Iodide (PI) staining. Increase in apoptotic markers in U251MG & IOMM-Lee cell lines reflected the pro-apoptotic potential of SEQ ID NO. 2 in brain tumor. • Externalization of PS on cell membrane by Annexin-V staining on U251MG cell line: SEQ ID NO."}, "U251MG cell line": {"tested_on": "U251MG cell line", "test": "Mitochondrial membrane depolarization by JC-1 staining", "type": "cell-based, Human", "settings": "1 μg/mL-80 μg/mL", "description": "as §1"}, "[1]": {"tested_on": "neovascularization of Matrigel plug containing FGF-2 (bFGF)", "test": "Matrigel plug assay (in-vivo anti-angiogenesis)", "design": "species or system C57BL/6 mice", "settings": "qdx15", "description": "Healthy C57BL/6 mice were selected and grouped on the basis of body weight into […] (G1-G4, n=7). Each mouse of group G2-G4 was subcutaneously injected at right flank region with 500 μl of matrigel containing 500 ng of FGF-2 (bFGF). Whereas mice of G1 group were subcutaneously injected at right flank region with 500 μl of matrigel only. In this assay, angiogenesis-inducing compounds such as bFGF was introduced into cold liquid Matrigel which, after subcutaneous injection, solidified and permits penetration by host cells and the formation of new blood vessels (neovascularization).\nRequired amount of test items were taken and added to an appropriate volume of Tris Buffered Saline (TBS) to achieve the required concentrations. The dose volume given to animal was 10 mL/Kg.\nDaily cage-side observations were carried out to detect any clinical signs or mortality and recorded throughout the experiment period."}}, "data": [{"molecule": "B1", "values": [{"measurement": "% Cytotoxicity", "setting": "MDA-MB-231", "result": 60.9, "unit": "%"}, {"measurement": "Percentage inhibition on levels of Notch-1", "setting": "Notch-1", "result": "81.2%-99.8%"}, {"measurement": "% Cytotoxicity", "setting": "PA-1", "result": 72.0, "unit": "%"}, {"measurement": "ATF-2", "setting": "mechanistic biomarkers", "result": "activated"}, {"measurement": "Angiopoietin-1 & Angiopoietin-2", "setting": "mechanistic biomarkers", "result": "activation"}, {"measurement": "CD40L", "setting": "mechanistic biomarkers", "result": "inhibited"}, {"measurement": "ERK and MEK-1 levels", "setting": "mechanistic biomarkers", "result": "increased"}, {"measurement": "Fol-1 expression", "setting": "mechanistic biomarkers", "result": "increased"}, {"measurement": "GMCSF and IL-6 expression", "setting": "mechanistic biomarkers", "result": "stimulated"}, {"measurement": "Galectin-1", "setting": "mechanistic biomarkers", "result": "inhibited"}, {"measurement": "Galectin-3", "setting": "mechanistic biomarkers", "result": "inhibited"}, {"measurement": "Her-2", "setting": "mechanistic biomarkers", "result": "stimulated"}, {"measurement": "IL-4R expression", "setting": "mechanistic biomarkers", "result": "activated"}, {"measurement": "IL-8 levels", "setting": "mechanistic biomarkers", "result": "increased"}, {"measurement": "Kallikrien-3 & Kallikrien-5", "setting": "mechanistic biomarkers", "result": "activation"}, {"measurement": "Osteopontin (PON)", "setting": "mechanistic biomarkers", "result": "activation"}, {"measurement": "PDGF-BB", "setting": "mechanistic biomarkers", "result": "activation"}, {"measurement": "Stat-3", "setting": "mechanistic biomarkers", "result": "increase"}, {"measurement": "TGF-alpha", "setting": "mechanistic biomarkers", "result": "activation"}, {"measurement": "TNF-α", "setting": "mechanistic biomarkers", "result": "activated"}, {"measurement": "TRAIL & TRAILR2", "setting": "mechanistic biomarkers", "result": "activation"}, {"measurement": "VEGF, VEGF-A and VEGFR2 expression", "setting": "mechanistic biomarkers", "result": "stimulated"}, {"measurement": "expression of EGF", "setting": "mechanistic biomarkers", "result": "inhibited"}, {"measurement": "expression of JNK", "setting": "mechanistic biomarkers", "result": "increased"}, {"measurement": "expression of Leptin", "setting": "mechanistic biomarkers", "result": "increased"}, {"measurement": "expression of c-kit", "setting": "mechanistic biomarkers", "result": "increased"}, {"measurement": "levels of HGF", "setting": "mechanistic biomarkers", "result": "increased"}, {"measurement": "levels of endoglin-1 expression", "setting": "mechanistic biomarkers", "result": "increased"}, {"measurement": "p53", "setting": "mechanistic biomarkers", "result": "inhibits"}, {"measurement": "increase in mitochondrial membrane depolarization as compared to Control (Untreated)", "setting": "IOMM-Lee cell line", "result": "16.1%-36.4%"}, {"measurement": "increase in mitochondrial membrane depolarization as compared to Control (Untreated)", "setting": "U251MG cell line", "result": "36.8%-60.9%"}, {"measurement": "neovascularization (H&E histology), in words", "setting": "[1]; 10 mg/Kg, i.p.", "result": "marginally reduced"}, {"measurement": "Hemoglobin Content in the Matrigel Plug Section, Mean", "setting": "[1]; G4, 10 mg/Kg, i.p.", "result": 41.10}, {"measurement": "reduction in hemoglobin content in homogenate of Matrigel plug compared to positive control", "setting": "[1]; G4, 10 mg/Kg, i.p.", "result": 23.6, "unit": "%"}, {"measurement": "Histological Observation, Fat cell Infiltration, Mean", "setting": "[1]; G4, 10 mg/Kg", "result": 1.57}, {"measurement": "Histological Observation, Fibroblast Infiltration, Mean", "setting": "[1]; G4, 10 mg/Kg", "result": 3.29}, {"measurement": "Histological Observation, MN cell Infiltration, Mean", "setting": "[1]; G4, 10 mg/Kg", "result": 2.71}, {"measurement": "Histological Observation, Neovascularization, Mean", "setting": "[1]; G4, 10 mg/Kg", "result": 2.43}]}]}
